Experimental data as given in PMC8939769, “The SARS-CoV-2 monoclonal antibody combination, AZD7442, is protective in non-human primates and has an extended half-life in humans” (Science Translational Medicine, 2022).

What was measured:
[1] = target: T1, SARS-CoV-2 S trimer (S2P ectodomain protein) (SARS-CoV-2, ancestral (Wuhan-Hu-1 …, UniProt P0DTC2, stabilised)); assay: cell-based or functional assay
[2] = target: T1, SARS-CoV-2 S trimer (S2P ectodomain …); assay: not stated; binding kinetics (ka, kd, KD) on the SARS-CoV-2 S trimer (S2P ectodomain protein); representative of at least two independent assays; assay details in the Supplementary materials; settings: both partners purified

B1: AZD8895 (tixagevimab) (antibody, V domains shown)
VH: QMQLVQSGPEVKKPGTSVKVSCKASGFTFMSSAVQWVRQARGQRLEWIGWIVIGSGNTNYAQKFQERVTITRDMSTSTAYMELSSLRSEDTAVYYCAAPYCSSISCNDGFDIWGQGTMVTVSS
VL: not shown
For B1, the “neutralization of the USA-WA1/2020 strain of SARS-CoV-2 in vitro, IC50” value [1] was 9 ng/mL and the Kd [2] was 2.8 pM.
